B1: Protein PTHB1 (Homo sapiens), Q3SYG4 (parent)
chain: MSLFKARDWWSTILGDKEEFDQGCLCLANVDNSGNGQDKIIVGSFMGYLRIFSPHPAKTGDGAQAEDLLLEVDLRDPVLQVEVGKFVSGTEMLHLAVLHSRKLCVYSVSGTLGNVEHGNQCQMKLMYEHNLQRTACNMTYGSFGGVKGRDLICIQSMDGMLMVFEQESYAFGRFLPGFLLPGPLAYSSRTDSFLTVSSCQQVESYKYQVLAFATDADKRQETEQQKLGSGKRLVVDWTLNIGEQALDICIVSFNQSASSVFVLGERNFFCLKDNGQIRFMKKLDWSPSCFLPYCSVSEGTINTLIGNHNNMLHIYQDVTLKWATQLPHIPVAVRVGCLHDLKGVIVTLSDDGHLQCSYLGTDPSLFQAPNVQSRELNYDELDVEMKELQKIIKDVNKSQGVWPMTEREDDLNVSVVVSPNFDSVSQATDVEVGTDLVPSVTVKVTLQNRVILQKAKLSVYVQPPLELTCDQFTFEFMTPDLTRTVSFSVYLKRSYTPSELEGNAVVSYSRPTDRNPDGIPRVIQCKFRLPLKLICLPGQPSKTASHKITIDTNKSPVSLLSLFPGFASQSDDDQVNVMGFHFLGGARITVLASKTSQRYRIQSEQFEDLWLITNELILRLQEYFEKQGVKDFACSFSGSIPLQEYFELIDHHFELRINGEKLEELLSERAVQFRAIQRRLLARFKDKTPAPLQHLDTLLDGTYKQVIALADAVEENQGNLFQSFTRLKSATHLVILLIALWQKLSADQVAILEAAFLPLQEDTQELGWEETVDAAISHLLKTCLSKSSKEQALNLNSQLNIPKDTSQLKKHITLLCDRLSKGGRLCLSTDAAAPQTMVMPGGCTTIPESDLEERSVEQDSTELFTNHRHLTAETPRPEVSPLQGVSE
partner: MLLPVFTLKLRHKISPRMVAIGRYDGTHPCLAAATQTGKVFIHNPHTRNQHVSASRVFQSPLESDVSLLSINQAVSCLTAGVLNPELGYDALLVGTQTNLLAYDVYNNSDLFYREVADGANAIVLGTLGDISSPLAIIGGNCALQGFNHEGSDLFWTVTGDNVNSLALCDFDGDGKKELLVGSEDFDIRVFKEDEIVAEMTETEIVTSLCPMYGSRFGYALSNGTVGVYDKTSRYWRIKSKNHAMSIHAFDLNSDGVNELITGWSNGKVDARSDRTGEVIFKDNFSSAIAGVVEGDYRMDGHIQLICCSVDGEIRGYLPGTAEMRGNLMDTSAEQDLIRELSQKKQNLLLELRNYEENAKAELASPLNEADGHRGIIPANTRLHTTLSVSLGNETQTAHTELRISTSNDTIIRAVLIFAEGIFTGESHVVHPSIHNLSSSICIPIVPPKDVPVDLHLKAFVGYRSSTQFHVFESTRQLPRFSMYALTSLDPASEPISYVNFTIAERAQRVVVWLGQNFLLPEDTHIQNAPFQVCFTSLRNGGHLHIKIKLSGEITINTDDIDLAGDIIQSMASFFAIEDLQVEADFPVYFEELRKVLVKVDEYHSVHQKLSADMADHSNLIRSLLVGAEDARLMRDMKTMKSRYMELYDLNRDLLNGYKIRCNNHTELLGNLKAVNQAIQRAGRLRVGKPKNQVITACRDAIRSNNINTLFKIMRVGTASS

Variants of: B1
Conditions: with bbs2_human BBS2, Q9BXC9

Variant | effect of a mutation on the interaction
R449E | with no effect
R449K | with no effect
R449A | with no effect
R483E | with no effect
R483A | with no effect
F474K | with no effect
F474E | with no effect
F474A | with no effect
T445E | with no effect
T445K | with no effect
T445A | with no effect
P463K | with no effect
P463A | with no effect
P463E | with no effect
Q447K | with no effect
Q447E | with no effect
Q447A | with no effect
K443A | with no effect
K443E | with no effect
T441K | with no effect
T441A | with no effect
T441E | with no effect
V459E | with no effect
V459A | with no effect
V459K | with no effect
V442E | with no effect

Variant | effect of a mutation on the interaction
V442A | with no effect
V442K | with no effect
E475K | with no effect
E475A | with no effect
Y460K | with no effect
Y460E | with no effect
Y460A | with no effect
E466K | with no effect
E466A | with no effect
D470E | with no effect
D470N | disrupting interaction strength
D470A | with no effect
D470K | with no effect
L481A | with no effect
L481E | with no effect
L481K | with no effect
T473A | with no effect
T473E | with no effect
T473K | with no effect
L457K | with no effect
L457E | with no effect
L457A | with no effect
F476E | with no effect
F476A | with no effect
F476K | with no effect
S458K | with no effect

Variant | effect of a mutation on the interaction
S458A | with no effect
S458E | with no effect
T468A | with no effect
T468K | with no effect
T468E | with no effect
M477E | with no effect
M477A | with no effect
M477K | with no effect
Q453E | with no effect
Q453A | with no effect
Q453K | with no effect
P479A | with no effect
P479E | with no effect
P479L | disrupting interaction strength
P479K | with no effect
L467K | with no effect
L467E | with no effect
L467A | with no effect
Q462A | with no effect
Q462Y | disrupting interaction strength
Q462T | disrupting interaction strength
Q462K | with no effect
Q462E | with no effect
A455K | with no effect
A455E | with no effect
L452E | with no effect

Variant | effect of a mutation on the interaction
L452K | with no effect
L452A | with no effect
P464A | with no effect
P464E | with no effect
P464K | with no effect
L465E | with no effect
L465A | with no effect
L465K | with no effect
C469K | with no effect
C469A | with no effect
C469E | with no effect
V444A | with no effect
V444K | with no effect
V444E | with no effect
K454A | with no effect
K454E | with no effect
D480A | with no effect
D480E | with no effect
D480K | with no effect
Q471A | with no effect
Q471E | with no effect
Q471K | with no effect
T478K | with no effect
T478I | disrupting interaction strength
T478E | with no effect
T478A | with no effect

Variant | effect of a mutation on the interaction
F472K | with no effect
F472A | with no effect
F472E | with no effect
V461K | with no effect
V461E | with no effect
V461A | with no effect
N448A | with no effect
N448K | with no effect
N448E | with no effect
V450E | with no effect
V450K | with no effect
V450A | with no effect
T482K | with no effect
T482E | with no effect
T482A | with no effect
K456A | with no effect
K456E | with no effect
L446A | with no effect
L446K | with no effect
L446E | with no effect
I451E | with no effect
I451A | with no effect
I451K | with no effect

Continued, values first:

effect of a mutation on the interaction | Variant
with no effect | R483K
with no effect | P497E
with no effect | P497A
with no effect | P497K
with no effect | K492A
with no effect | K492E
with no effect | Y495E
with no effect | Y495K
with no effect | Y495A
with no effect | R493K
with no effect | R493A
with no effect | R493E
with no effect | L491E
with no effect | L491K
with no effect | L491A
with no effect | S486E
disrupting interaction strength | S486N
with no effect | S486K
with no effect | S486A

effect of a mutation on the interaction | Variant
disrupting interaction strength | S486R
with no effect | G502E
with no effect | G502A
with no effect | T484A
with no effect | T484E
with no effect | T484K
with no effect | E499A
with no effect | E499K
with no effect | T496E
with no effect | T496K
with no effect | T496A
with no effect | V489A
with no effect | V489E
with no effect | V489K
with no effect | E501A
with no effect | E501K
with no effect | S498A
with no effect | S498E
disrupting interaction strength | S498L

effect of a mutation on the interaction | Variant
with no effect | S498K
with no effect | V485A
with no effect | V485E
with no effect | V485K
with no effect | L500A
with no effect | L500E
with no effect | L500K
with no effect | F487A
with no effect | F487E
with no effect | F487K
with no effect | S488A
with no effect | S488E
with no effect | S488K
with no effect | Y490E
with no effect | Y490A
with no effect | Y490K
with no effect | S494A
with no effect | S494K
with no effect | S494E

From IntAct's records for PubMed 29039417
